In the supplement of paper PMC7877785:
± gives the uncertainty stated by the source.

Test: self-splicing fitness, log relative to wild type (ln ratio); higher = more splicing; Tetrahymena group I intron in knt gene, E. coli kanamycin selection, DiMSum; sequences stand for … in CUCUCU…GGAGGGAAAAGUUAUCAGGCAUGCACCUGGUAGCUAGUCUUUAAACCAAUAGAUUGCAUCGGUUUAAAAGGCAAGACCGUCAAAUUGCGGGAAAGGGGUCAACAGCCGUUCAGUACCAAGUCUCAGGGGAAACUUUGAGAUGGCCUUGCAAAGGGUAUGGUAAUAAGCUGACGGACAUGGUCCUAACCACGCAGCCAAGUCCUAAGUCAACAGAUCUUCUGUUGAUAUGGAUGCAGUUCACAGACUAAAUGUCGGUCGGGGAAGAUGUAUUCUUCUCAUAAGAUAUAGUCGGACCUCUCCUUAAUGGGAGCUAGCGGAUGAAGUGAUGCAACACUGGAGCCGCUGGGAACUAAUUUGUAUGCGAAAGUAUAUUGAUUAGUUUUGGAGUACUCGUGGUCG
Outline: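 Fitness was computed with DiMSum as the error-weighted combination of replicate fold changes, kanamycin versus none, each normalised to wild type. The library randomised all eight intron nucleotides of the P1ex region, with the intron placed in the knt kanamycin-resistance gene on pET-22b(+) in E. coli BL21(DE3). Six replicate transformations were grown overnight at 37°C or 30°C on LB agar with or without 25 μg/mL kanamycin, plus 100 μg/mL carbenicillin, 50 μM IPTG and 0.2% rhamnose. Pooled colonies were amplicon-sequenced on an Illumina HiSeq 2500.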

Sequence | self-splicing fitness (ln) (30 °C) | self-splicing fitness (ln) (37 °C)
GGGAAGCAAUAUUACGGUGG | -3.18 ± 0.24 | -2 ± 0.24
AGCUAGCAAUAUUACGAUGC | -2.47 ± 0.12 | -2.12 ± 0.17
UCUAAGCAAUAUUACGGUGC | -2.58 ± 0.12 | -2.85 ± 0.2
CAUCAGCAAUAUUACGUACG | 0.0534 ± 0.077 | -0.0455 ± 0.097
GCCAAGCAAUAUUACGCUUC | -2.75 ± 0.14 | -1.17 ± 0.16
AUGAAGCAAUAUUACGUUAA | -1.51 ± 0.084 | -0.908 ± 0.1
CAUAAGCAAUAUUACGAAGU | -3.15 ± 0.17 | -2.75 ± 0.29
UGUAAGCAAUAUUACGAUCU | 0.361 ± 0.11 | 0.0759 ± 0.13
ACCCAGCAAUAUUACGAAUC | -2.13 ± 0.12 | -1.45 ± 0.16
GUUAAGCAAUAUUACGUAGU | -2.06 ± 0.16 | -0.895 ± 0.14
CCAUAGCAAUAUUACGACGC | -2.27 ± 0.26 | -2.51 ± 0.39
CAGGAGCAAUAUUACGUUAU | -3.4 ± 0.29 | -2.71 ± 0.3
UGCAAGCAAUAUUACGUCUC | -1.76 ± 0.12 | -2.67 ± 0.25
CUUCAGCAAUAUUACGACUA | -2.12 ± 0.39 | 
ACGGAGCAAUAUUACGUUUA | -3.14 ± 0.2 | -2.68 ± 0.21
GGCGAGCAAUAUUACGCGUA | -1.09 ± 0.17 | -0.484 ± 0.15
UACAAGCAAUAUUACGUGAG | -3.54 ± 0.17 | -1.91 ± 0.14
GCUGAGCAAUAUUACGAAGU |  | -1.72 ± 0.41
CUCUAGCAAUAUUACGGGUA | -2.21 ± 0.14 | -1.05 ± 0.12
GAGUAGCAAUAUUACGCCUC | -2.22 ± 0.24 | -3.01 ± 0.47
AAUUAGCAAUAUUACGAAAA | -2.54 ± 0.24 | -0.586 ± 0.19
CAAGAGCAAUAUUACGACUA | -3.01 ± 0.23 | -2.47 ± 0.21
GUCGAGCAAUAUUACGAAUA | -2.42 ± 0.36 | -2.1 ± 0.34
CGUAAGCAAUAUUACGACCU | -1.97 ± 0.17 | -0.549 ± 0.16
GCAAAGCAAUAUUACGUCGU | -2.22 ± 0.095 | -2.27 ± 0.15

Sequence | self-splicing fitness (ln) (30 °C) | self-splicing fitness (ln) (37 °C)
CAUAAGCAAUAUUACGCAGG | -1.84 ± 0.18 | -1.22 ± 0.18
AUUAAGCAAUAUUACGUCCA | -0.883 ± 0.098 | -0.386 ± 0.12
ACCCAGCAAUAUUACGGAAG | -2.49 ± 0.091 | -1.02 ± 0.1
GACGAGCAAUAUUACGGCAG | -2.04 ± 0.25 | -2.51 ± 0.38
UUGAAGCAAUAUUACGAUGC | -4.76 ± 0.39 | -1.58 ± 0.24
CUCAAGCAAUAUUACGUGGU | -3.18 ± 0.12 | -2.09 ± 0.12
AAGGAGCAAUAUUACGGUUU | -2.45 ± 0.12 | -1.07 ± 0.11
AAACAGCAAUAUUACGAAUC | -4.43 ± 0.46 | -1.54 ± 0.22
CAUGAGCAAUAUUACGUCGU | -3.75 ± 0.18 | -3.34 ± 0.19
GGUAAGCAAUAUUACGGUAU | -1.32 ± 0.074 | -1.44 ± 0.11
ACAUAGCAAUAUUACGGAGU | -3.73 ± 0.12 | -2.55 ± 0.13
AGGAAGCAAUAUUACGGAAU | -2.88 ± 0.22 | -2.14 ± 0.3
UACCAGCAAUAUUACGACGC | -2.41 ± 0.12 | -1.73 ± 0.15
UACUAGCAAUAUUACGUCUG | -0.817 ± 0.07 | -0.845 ± 0.086
CCAAAGCAAUAUUACGACGU | -3.76 ± 0.22 | -2.8 ± 0.21
GCCUAGCAAUAUUACGUAGG | -3.69 ± 0.18 | -2.93 ± 0.25
CUGGAGCAAUAUUACGUGUU | -3.3 ± 0.16 | -3.31 ± 0.21
UCAAAGCAAUAUUACGCUAC | -2.96 ± 0.46 | -2.22 ± 0.37
ACUUAGCAAUAUUACGGGCC | -2.42 ± 0.28 | -2.35 ± 0.42
AAGGAGCAAUAUUACGUUCA | -1.44 ± 0.077 | -0.0364 ± 0.088
UAAGAGCAAUAUUACGAAUC | -2.87 ± 0.29 | -1.79 ± 0.35
UCGGAGCAAUAUUACGCUAG | -1.87 ± 0.21 | -2.38 ± 0.27
CCUCAGCAAUAUUACGGUGG | -4.11 ± 0.16 | -2.41 ± 0.16
AACGAGCAAUAUUACGGAAA | -3.63 ± 0.23 | -2.65 ± 0.24
GUCAAGCAAUAUUACGCUGC |  | -3.33 ± 0.27

Sequence | self-splicing fitness (ln) (30 °C) | self-splicing fitness (ln) (37 °C)
AUAAAGCAAUAUUACGUGCA | -0.0876 ± 0.067 | 0.348 ± 0.093
UAAUAGCAAUAUUACGCACC | -2.04 ± 0.21 | -0.918 ± 0.24
CCACAGCAAUAUUACGAAAC | -2.27 ± 0.29 | -1.8 ± 0.34
GCAGAGCAAUAUUACGUACA | -2.86 ± 0.28 | -0.806 ± 0.24
UAAUAGCAAUAUUACGUUUU | -4.25 ± 0.29 | -2.73 ± 0.17
UAUCAGCAAUAUUACGGACG | -0.108 ± 0.091 | 0.00709 ± 0.11
UGUUAGCAAUAUUACGAAGA |  | -1.54 ± 0.4
AUUGAGCAAUAUUACGUGCC | -2.73 ± 0.4 | 
AGCUAGCAAUAUUACGGCAA | -0.629 ± 0.081 | -0.284 ± 0.097
GGUCAGCAAUAUUACGGCUA | 0.0808 ± 0.098 | 0.494 ± 0.12
GGCAAGCAAUAUUACGACGC | -0.177 ± 0.14 | -0.105 ± 0.17
UAACAGCAAUAUUACGCUGC | -2.45 ± 0.3 | -1.92 ± 0.28
UCAAAGCAAUAUUACGUCAG | -1.75 ± 0.086 | -0.944 ± 0.097
CUGCAGCAAUAUUACGAAGC | -2.78 ± 0.28 | -2.6 ± 0.28
UGGAAGCAAUAUUACGACUC | -0.463 ± 0.11 | -0.577 ± 0.16
ACCCAGCAAUAUUACGCUUC | -2.01 ± 0.076 | -1 ± 0.095
GCAAAGCAAUAUUACGGGCC | -2.74 ± 0.13 | -2.03 ± 0.21
GUACAGCAAUAUUACGUGAG | -1.42 ± 0.074 | -0.954 ± 0.093
UCGAAGCAAUAUUACGUAUG | -2.78 ± 0.16 | -1.33 ± 0.15
GCCGAGCAAUAUUACGGCGC | -1.48 ± 0.23 | -0.221 ± 0.23
GUUGAGCAAUAUUACGACGG | -3.52 ± 0.3 | -1.12 ± 0.28
CAAUAGCAAUAUUACGUAGG | -0.348 ± 0.092 | -0.384 ± 0.14
AGGAAGCAAUAUUACGAGAA |  | -1.39 ± 0.32
GACAAGCAAUAUUACGUUGG | -3.26 ± 0.11 | -2.56 ± 0.14
AUUAAGCAAUAUUACGGACU | 0.271 ± 0.11 | 0.324 ± 0.15

Sequence | self-splicing fitness (ln) (30 °C) | self-splicing fitness (ln) (37 °C)
AAACAGCAAUAUUACGCACU | -0.221 ± 0.079 | 0.0967 ± 0.091
AGAGAGCAAUAUUACGAUAG |  | -0.994 ± 0.49
GAAUAGCAAUAUUACGCCGA | -1.62 ± 0.31 | 0.319 ± 0.22
UCCCAGCAAUAUUACGCAUA | -1.47 ± 0.16 | -1.27 ± 0.15
GGCCAGCAAUAUUACGACAG | -4.12 ± 0.25 | -3.08 ± 0.35
ACCUAGCAAUAUUACGUGUC | -4.29 ± 0.29 | -2.24 ± 0.17
AUAGAGCAAUAUUACGAUAA | -1.23 ± 0.16 | -0.812 ± 0.23
GUGUAGCAAUAUUACGCCUU | -2.63 ± 0.39 | -2.56 ± 0.37
UAGGAGCAAUAUUACGUGGG | -3.17 ± 0.24 | -3.32 ± 0.38
CUGUAGCAAUAUUACGUCGG | -3.47 ± 0.2 | -1.87 ± 0.18
UUCAAGCAAUAUUACGAUCC | -2.66 ± 0.27 | -1.55 ± 0.29
AGACAGCAAUAUUACGUUCA | -0.336 ± 0.056 | -0.159 ± 0.086
UAGUAGCAAUAUUACGGCAA | -0.858 ± 0.15 | -1.04 ± 0.16
GUUGAGCAAUAUUACGAGUC | -3.09 ± 0.28 | -0.0995 ± 0.16
GCAUAGCAAUAUUACGUAUG | -2.85 ± 0.17 | -2.44 ± 0.26
AAUCAGCAAUAUUACGGCCC | -0.563 ± 0.18 | 0.491 ± 0.2
AGCAAGCAAUAUUACGUGGG | -3.44 ± 0.12 | -2.37 ± 0.16
GGCCAGCAAUAUUACGUAGA | -1.59 ± 0.12 | -1.04 ± 0.15
CCUGAGCAAUAUUACGAACC | -3.35 ± 0.3 | 
CCCUAGCAAUAUUACGACGC | -3.34 ± 0.32 | -2.53 ± 0.39
UAAUAGCAAUAUUACGACCG | -0.0649 ± 0.15 | 0.638 ± 0.17
UGGAAGCAAUAUUACGAGAC | -3.31 ± 0.48 | 
GCUUAGCAAUAUUACGUAAC | -0.517 ± 0.11 | -0.62 ± 0.24
